The source of these data is patent US20070086998A1.

Assay [1] deals with HLA-DR as expressed on the tumor cell line. Kind of assay: cell-based or functional assay.
Assay [2] concerns the target HLA-DR on LG-2 cells (human). Briefly: cell-based or functional assay.

Chain of L243 (antibody) (VH): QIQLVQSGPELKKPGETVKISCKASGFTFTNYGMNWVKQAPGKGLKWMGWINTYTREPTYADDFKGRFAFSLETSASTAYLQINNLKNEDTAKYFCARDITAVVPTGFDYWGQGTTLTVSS
Chain of L243 (antibody) (VL): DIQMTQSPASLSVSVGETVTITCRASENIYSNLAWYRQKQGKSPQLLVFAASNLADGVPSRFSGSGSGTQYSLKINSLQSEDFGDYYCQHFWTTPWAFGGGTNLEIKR

As for L243 (antibody), in assay [1], the % Killing by mAb; ARH-77 (DR 12); 200 nM, 4 h is 88%; the % Killing by mAb; BJAB (DR 12,13); 200 nM, 4 h came out at 53%; the % Killing by mAb; BONNA-12; 200 nM, 4 h came to 92%; the % Killing by mAb; DOHH-2 (DR 1,2); 200 nM, 4 h was 29%. In assay [1], the % Killing by mAb; EOL-1; 200 nM, 4 h was found to be 22%; the % Killing by mAb; GRANTA-519 (DR 2,11); 200 nM, 4 h came out at 83%; the % Killing by mAb; HC-1; 200 nM, 4 h turned out to be 88%; the % Killing by mAb; HD-MY-Z; 200 nM, 4 h was determined as 35%. Besides, in assay [1], the % Killing by mAb; HDLM-2; 200 nM, 4 h is 77%; the % Killing by mAb; KARPAS-299 (DR 1,2); 200 nM, 4 h was determined as 78%; the % Killing by mAb; KARPAS-422 (DR 2,4); 200 nM, 4 h was found to be 25%; the % Killing by mAb; KM-H2; 200 nM, 4 h amounted to 81%. Further, in assay [1], the % Killing by mAb; L1236; 200 nM, 4 h amounted to 52%; the % Killing by mAb; L-363; 200 nM, 4 h turned out to be 6%; the % Killing by mAb; L-428 (DR 12); 200 nM, 4 h was determined as 82%; the % Killing by mAb; LP-1; 200 nM, 4 h was found to be 12%. In assay [1], this substance came in with a % Killing by mAb; MHH-CALL-4 (DR 1,2); 200 nM, 4 h of 35%; a % Killing by mAb; MHH-PREB-1; 200 nM, 4 h of 3%; a % Killing by mAb; MN-60 (DR 10,13); 200 nM, 4 h of 46%; a % Killing by mAb; NALM-1 (DR 1,4); 200 nM, 4 h of 44%. For the same substance, in assay [1], the % Killing by mAb; RAJI (DR 10,17); 200 nM, 4 h was determined as 69%; the % Killing by mAb; RPMI-8226; 200 nM, 4 h was 6%; the % Killing by mAb; SR-786 (DR 1,2); 200 nM, 4 h worked out at 3%. Besides, the % Killing by mAb; LG-2 (DR 1,1); 200 nM, 4 h in assay [2] came out at 79%.
